Laboratory results taken from the DeepSol protein solubility set.

Experiment: soluble on expression in E. coli; label from the status in PepcDB or PDB records
With “MLIVGEDFGMRVSVLASSSSGNATYIETPGHKVLVDAGLSGKKIETLMQSIGRDLTDVDSVFITHEHSDHVRGVGVLARRYPKLSVYANAKTFAALPKSVGKIPEDQLRLFDMGATLTLGDLDVESFGVSHDAAAPQFYQFHHDGKTFTILTDTGYVSDRVAGTIRDADAYVMECNHDLEMLRTGPYPWPLKQRILGDQGHLSNEDGADALMDVIGLRTKRIYLGHLSPHNNNKPLAHLTVASLLAQQGLAVDHDFRIYDTDPAVADPLFVVLEHHHHHH” the “soluble on expression in E. coli” value was “not soluble”. For “MPLPYDKEKKLWKVTGWYLESSEETGEVMQSKQIAFEGYTNEENFANRQRVSVFKSFYESGNLKSIYHYNAQNKRDGKAETYFDEKDKIAETLTFKDGQPEGEYIVYHENGAVESKRYFAQGKIKDGECPHFYDNGVLKQKHSYLNQKLEGPAFEYFPDGKIKGKYSYSKGTIVGTSTEYYSTGKIRGVYHRNNQGENDGTFEQYSEEGKLLSKATYKNGKQLSAQSWYENGHPKEESSFDSEGRKHGAVKEWFSNGKPASSKMYKHDVLDGDFEKWYENGHRESVYPYKNGMLNGDAKHWNEQGKLTYTTEYKDDKKQGADRRWSERTGKLVEEVMFANDERNGLKREFNDRTGKVLSALPYVDGDKEGTEEAYDEDGIKYIRCYHNDEELSELYAPTDVTNKAKQGDSTAQYHLGKYEFECTNYDAAMKWLTQSAEQNHPGALLFLAYAYNDGDGVAQDSKKYLSYLFKAAELGESDAQLEVGYLNLIGEGMPKNLPEAYKWIKKSADQGNAQAHYNLGLMYRNGDGVEKDLNKAKLHLTAAVKGGVKPALAALKELTPQTKLEHHHHHH”, the “soluble on expression in E. coli” value was “not soluble”. In the case of “GSTDSLPGKFEDMYKLTSELLGEGAYAKVQGAVSLQNGKEYAVKIIEKQAGHSRSRVFREVETLYQCQGNKNILELIEFFEDDTRFYLVFEKLQGGSILAHIQKQKHFNEREASRVVRDVAAALDFLHTKGIAHRDLKPENILCESPEKVSPVKICDFDLGSGMKLNNSCTPITTPELTTPCGSAEYMAPEVVEVFTDQATFYDKRCDLWSLGVVLYIMLSGYPPFVGHCGADCGWDRGEVCRVCQNKLFESIQEGKYEFPDKDWAHISSEAKDLISKLLVRDAKQRLSAAQVLQHPWVQGQAPEKG”, the “soluble on expression in E. coli” value is reported as “soluble”. For “GPGSMSTGAELLSKALQLQHTRCETYRLWDAKFHCALGGALSASDFETAVNNSIIAAFRCVSLSFRELQCLCRDSTDDACRFLCVWIDELQELEQRHYNISVQFAQLVVQHCTALPLHSSTSQTDMCQTAANEEAENSGVENGSKEVQGTADVSENEKSTVANGERNNSSEVICASLHDRQLCELQRIIPLQAQSVLNYVTCRDDFFPSSSDDECEGDQTGGDGCTSNGADSEPGDLLVPFHHKSGVVATYSPGEVKKRCATFNAAVMPLWRSKLRLRQQLQEKMDELQEEITSASSVFP”, the “soluble on expression in E. coli” value was “soluble”. For “MSLSEAGHKFLAKLGKKRLRPGGKRATDWLIAEGGFSKEKRILEVACNRGTTAIELAQRFGCKITAVDMDAQALEVAKKSAGTAGVAHLISFERANAMKLPYQDASFDIVINEAMLTMQADQAKKKCVMEYLRVLKPGGLLLTHDVLLKEAKESIRQELSQAIHVNVGPLTQDGWEQVMIESGYCDVKALTGEMTLMKLSGMIYDEGLLGTLKICVNACKKENRKQFLTMYKMFAKNKQKLGFIAMASYKSSKREGHHHHHH”, the “soluble on expression in E. coli” value was “not soluble”. In the case of “MRKDVKIYLNHILESIELIEEYTKDKTEDDFFTSKFLQDAVIRRIEIIGEAIKNLPMEFREKYNHIPWKEFAEMRDILIRKYFGVDLGLTWEVVKKDIPKLKEEILKIMEELDKNKNNKYNVFAYGELMKKERLLELINRVPKMIEGRVYGYEKFFDETIGYYGARKKEGSYIDGIILLDITDKELGIFDDYEDLDVYYIREKTTAVSEDGRKYDVYIYLRK”, the “soluble on expression in E. coli” value is reported as “soluble”. For “TVLPKDIPGDSLKVTVGTANGKPGDTVTVPVTFADVAKMKNVGTCNFYLGYDASLLEVVSVDAGPIVKNAAVNFSSSASNGTISFLFLDNTITDELITADGVFANIKFKLKSVTAKTTTPVTFKDGGAFGDGTMSKIASVTKTNGSVTIDP”, the “soluble on expression in E. coli” value was “soluble”. In the case of “MKTNREQEIYVERSFKPNNSTIQNLMDIERFILPHTSTSGVARLKMRVISWVGLQFYNY”, the “soluble on expression in E. coli” value is reported as “soluble”. With “GPGSMAFGNASKGTDDYTPEEHLTAAVMEYKKLEAANQNSVEHMYNVLSSPFKIGSKPCEAIRGDALRCLSEIIGNFTAKSTSGTDGSTVMANSASIVSQELPPIHRCYESVLHYESCVLERTLSRHNSMVATFEARRLREADSAREAAAAGGDI” the “soluble on expression in E. coli” value was “not soluble”. With “MAHHHHHHMSAEQQRLKKMHCEAVTLAEMKQWLGLPLTTAASSSSAAPAAAAVAAAPKSPVEEAVGRDVYDMYGLSMTAVDAYLLRYLRSKNLVIEDAVAKLRRRRAFERTLPMISVTTTTVAALRSGAFHLLDHDLEGRPVLYINVATFTLPTLELDEAQRLLIILLEFMQARCLLKNNEKVAAMQRRRRQHVDATAAASSFANGGRENNGGAAAPAHGAQDVDKETVSDLQEFALLVNEERVPWMMHASFLKNYSTLLSILPKYYPLLLGSVLVLGASLEIRTAIKACVGSSSEDVRNSVQMIEKADLPRYMDASTIPVELGGHKQIVGSAMNFSETVLRHWFTLTSQIEDECVGSDGGIADSKVPTTISAAGAANGHREDGGGAETSHSPPRPLYVPPPPLGMTQRHISRQRHAVELQHLSSSVVGTITGPGSPGPMRPCKYGGSSARNGKHSLMSSAAAANRSTAVTTPHGTPTSQKDQAAATVTLGAGRAEDVTDDGVCSALSGADERDDYAENEGGGAGMHTRTNSGVPTYQLYTAASSLAGSLAVEGEMHLSGLGASHNRHHQGASLYSVASATISREEAAHFADHPDDAVVALRQERRRRQRAEQALYFRDLGVTLDMRNASIIEKELAAIHQDLNVLVAEILVKAEAARKRQKAPPTLKQLLDLTLTAFESVTCTPSSVPAMALAEPAQREAASSSCCSFM” the “soluble on expression in E. coli” value was “not soluble”. For “MTPEIKVKSMRSVGTQVDVQCITYGLAGFDSVFKHCGVFSGEEHNVSSIWKGPVRMVERKTETESFEISQYGETVFKPSLQLLVGTSDEIAFSLLRHVFSKMDIIELRHYLQVLGFEKTFNLMYNLGEEFIEGEIPVDERILLDEIEALESFTVSNMTIEEEIEARRVERLALKFVEEMYNPDTENDEQIALLLHSEMNDENGDNDLIEEDYFNIANLEESFPGTNKKVVREAYNIAGRKVDFTREILLSNGEVENTYAVKLKPKPTWSKKVASSPSPLRLSLPKKSKKEEENHFLKKRSGRHSQLEEIQLLAIRTRQKIEADRITSSNSMAAAKYRQLIIVDRASRMKIEKSSEVKELDRKIREAHNNPWFLDLHYMSVDGAVKLVKEAIEAVKYHLKAARNLDRRITVVTGSGNNSKCGAKIKPQVLAMLQHNDYNYELVNDGCIRFKV”, the “soluble on expression in E. coli” value was “not soluble”. In the case of “GPGSMTVVTTESGLKYEDLTEGSGAEARAGQTVSVHYTGWLTDGQKFDSSKDRNDPFAFVLGGGMVIKGWDEGVQGMKVGGVRRLTIPPQLGYGARGAGGVIPPNATLVFEVELLDV”, the “soluble on expression in E. coli” value is reported as “soluble”. In the case of “MPILTIREVCNINHWGIGYYDVDDSGEIIVRPNPSQHNQTVSLQKLTEAVQQKHQARLPVLFCFPQILEHRLRDINRAFQTAREECGYKGGYCLVYPIKVNQHRRVIESLMSSGQPHGLEAGSKAELMAVLAHAGNRQTLIVCNGYKDREYIRFALMGEKLGHQVYLVIEKLSEIQMVLEEAEKLGIKPRLGVRARLASQGSGKWQSSGGEKSKFGLSASQVLQLVDILKQKNRLDCLQLLHFHLGSQLGNIRDVATGVHESARFYVELHKLGVNIRCFDVGGGLGVDYEGNRTQSDCSVNYSLNEYAATVVWGISQACLEHGLPHPTIITESGRGITAHHAVLVANVIGVERYKPRRLDAPSPEAPRVLHSMWETWTDISASREKRSLRSWIHEGQFDLADVHNQYNVGLLSLAQRAWAEQLYLNICHEVGELFNEKHRSHRTIIDELQERFADKLYVNFSLFQSLPDAWGIDQLFPVCPITGLNEPIARRAVLLDITCDSDGTIDHYIDGDGIAGTMPMPDYPEEEPPLLGFFMVGAYQEILGNMHNLFGDTATADVVVGEDGQFTVIDYDEGNTVADMLEYVYQDPKELMKRYREQIEHSDLPASQAMSFLKELEAGLNGYTYLEDE”, the “soluble on expression in E. coli” value is reported as “not soluble”. For “MEYPRVMIRFAVIGTNWITRQFVEAAHESGKYKLTAVYSRSLEQAQHFANDFSVEHLFTSLEAMAESDAIDAVYIASPNSLHFSQTQLFLSHKIHVICEKPLASNLAEVDAAIACARENQVVLFEAFKTACLPNFHLLRQALPKAGKLRKVFFNYCQYSSRYQRYLDGENPNTFNPAFSNGSIMDIGFYCLASAVALFGEPKSVQATASLLASGVDAHGVVVMDYGDFSVTLQHSKVSDSVLGSEIQGEAGSLVIEKLSECQKVCFVPRGSQMQDLTQPQHINTMLYEAELFATLVDEHLVDHPGLAVSRITAKLLTEIRRQTGVIFPADSVKLYLPK”, the “soluble on expression in E. coli” value was “not soluble”. With “GNMDSKAVEELSATECHQWYKKFMTECPSGQLTLYEFKQFFGLKNLSPSANKYVEQMFETFDFNKDGYIDFMEYVAALSLVLKGKVDQKLRWYFKLYDVDGNGCIDRGELLNIIKAIRAINRCNEAMTAEEFTNMVFDKIDINGDGELSLEEFMEGVQKDEVLLDILTRSLDLTHIVKLIQNDGKNPHAPEEAEEAAQ” the “soluble on expression in E. coli” value was “soluble”. In the case of “MSLGKDVRFHTENWSYYPWRLWAEQFLQFEDWCLQASSKVPGIPLHVKRTVTFSTRQILDALSPSNFVLTNPDLLQETIRSNGQNLIRGTELAFQDFVEKITGSPPAGVENFIPGKQVAVTEGKVVYSNHLIELIQYTPQTEKVYKEPILILPAWIMKYYILDLLPENSLVNWLVRQGHTVFIVSWRNPTKEDRNIGLDDYYKLGAMDAINAVSNAIPHTKIHLMGYCLGGTLALLTAAAMAHDHDNRLKTLSLLAAQGDFIDAGELLLFITKSEVSFLKSMMWEQGYLDTKQMSGTFQMLRSYDLIWSKMVQDYMHGTQRGMIPLLAWNADATRMPYKMHSEYLEKLFLNNDFAEGRFILDGKPVVGENIRMPAFVVSTEKDHVAPWKSVYKTHLLINSDITFVLTNGGHNAGIVSEPGHEGRYYRIRERKMDSTYLDPTNWLKKAELREGSWWIAWHDWLVNHSSQKQVSAPKLDKNLPNAPGKYVLQKEGHHHHHH”, the “soluble on expression in E. coli” value is reported as “soluble”. With “MVKETKLYDLLGVSPSANEQELKKGYRKAALKYHPDKPTGDTEKFKEISEAFEILNDPQKREIYDQYGLEAARSGGPSFGPGGPGGAGG” the “soluble on expression in E. coli” value was “soluble”. With “MSQEALKAPVVVLGAGLASVSFVAELRQAGYQGLITVVGDEAERPYDRPPLSKDFMAHGDAEKIRLDCKRAPEVEWLLGVTAQSFDPQAHTVALSDGRTLPYGTLVLATGAAPRALPTLQGATMPVHTLRTLEDARRIQAGLRPQSRLLIVGGGVIGLELAATARTAGVHVSLVETQPRLMSRAAPATLADFVARYHAAQGVDLRFERSVTGSVDGVVLLDDGTRIAADMVVVGIGVLANDALARAAGLACDDGIFVDAYGRTTCPDVYALGDVTRQRNPLSGRFERIETWSNAQNQGIAVARHLVDPTAPGYAELPWYWSDQGALRIQVAGLASGDEEIVRGEVSLDAPKFTLIELQKGRIVGATCVNNARDFAPLRRLLAVGAKPDRAALADPATDLRKLAAAVAA” the “soluble on expression in E. coli” value was “soluble”. With “MPVAIVTGASSGIGRAAALLLARNNYKLSLTGRNVAALNELAGQIVSAGSDKNDVLVTAVELASEEAPKTIVDATVQKFGRIDTLINSAGILRAGPVLDSGIEVYDELMNVNVRSLIRLTRAALPHIITTKGTVVNVSSINGPCPFPNVTYYCMSKSAVDQFTKCLALEMAPNGVRVNAVCPGVTVTNLHRTSGQDETTYSAFLERSKTTHALGRPGDANEVAEAIYFLASEKSSFTTGELLRVDGGRGIMHPR” the “soluble on expression in E. coli” value was “soluble”. In the case of “GRWILKNDVKNRSVYIKGFPTDATLDDIKEWLEDKGQVLNIQMRRTLHKAFKGSIFVVFDSIESAKKFVETPGQKYKETDLLILFKDDYFAKKNEERKQNKVE”, the “soluble on expression in E. coli” value is reported as “soluble”.
